This is an account of results in paper PMC2928679 (The EMBO Journal, 2010).

B1: FlagHis12-tagged mouse Mel18 (natural protein)
chain: MHRTTRIKITELNPHLMCALCGGYFIDATTIVECLHSFCKTCIVRYLETNKYCPMCDVQVHKTRPLLSIRSDKTLQDIVYKLVPGLFKDEMKRRRDFYAAYPLTEVPNGSNEDRGEVLEQEKGALGDDEIVSLSIEFYEGVRDREEKKNLTENGDGDKEKTGVRFLRCPAAMTVMHLAKFLRNKMDVPSKYKVEILYEDEPLKEYYTLMDIAYIYPWRRNGPLPLKYRVQPACKRLTLPTVPTPSEGTNTSGASECESVSDKAPSPATLPATSSSLPSPATPSHGSPSSHGPPATHPTSPTPPSTAAGTTTATNGGTSNCLQTPSSTSRGRKMTVNGAPCPP
B2: FlagHis12-tagged mouse Bmi1 (natural protein)
chain: MHRTTRIKITELNPHLMCVLCGGYFIDATTIIECLHSFCKTCIVRYLETSKYCPICDVQVHKTRPLLNIRSDKTLQDIVYKLVPGLFKNEMKRRRDFYAAHPSADAANGSNEDRGEVADEEKRIITDDEIISLSIEFFDQSRLDRKVNKEKPKEEVNDKRYLRCPAAMTVMHLRKFLRSKMDIPNTFQIDVMYEEEPLKDYYTLMDIAYIYTWRRNGPLPLKYRVRPTCKRMKMSHQRDGLTNAGELESDSGSDKANSPAGGVPSTSSCLPSPSTPVQSPHPQFPHISSTMNGTSNSPSANHQSSFASRPRKSSLNGSSATSSG
B3: CBX8-Flag purified from bacteria (natural protein)
chain: MELSAVGERVFAAEALLKRRIRKGRMEYLVKWKGWSQKYSTWEPEENILDARLLAAFEEREREMELYGPKKRGPKPKTFLLKAQAKAKAKTYEFRSDSARGIRIPYPGRSPQDLASTSRAREGLRNMGLSPPASSTSTSSTCRAEAPRDRDRDRDRDRERDRERERERERERERERERERGTSRVDDKPSSPGDSSKKRGPKPRKELPDPSQRPLGEPSAGLGEYLKGRKLDDTPSGAGKFPAGHSVIQLARRQDSDLVQCGVTSPSSAEATGKLAVDTFPARVIKHRAAFLEAKGQGALDPNGTRVRHGSGPPSSGGGLYRDMGAQGGRPSLIARIPVARILGDPEEESWSPSLTNLEKVVVTDVTSNFLTVTIKESNTDQGFFKEKR
B4: FlagHis12-tagged mouse Ring1b (natural protein)
chain: MSQAVQTNGTQPLSKTWELSLYELQRTPQEAITDGLEIVVSPRSLHSELMCPICLDMLKNTMTTKECLHRFCADCIITALRSGNKECPTCRKKLVSKRSLRPDPNFDALISKIYPSRDEYEAHQERVLARINKHNNQQALSHSIEEGLKIQAMNRLQRGKKQQIENGSGAEDNGDSSHCSNASTHSNQEAGPSNKRTKTSDDSGLELDNNNAAVAIDPVMDGASEIELVFRPHPTLMEKDDSAQTRYIKTSGNATVDHLSKYLAVRLALEELRSKGESNQMNLDTASEKQYTIYIATASGQFTVLNGSFSLELVSEKYWKVNKPMELYYAPTKEHK

The experiment deals with GST-USP7 (human, UniProt Q93009-1 1-1102). The experiment is described as follows: pull-down.
Chain of GST-USP7 (Q93009 whole entry): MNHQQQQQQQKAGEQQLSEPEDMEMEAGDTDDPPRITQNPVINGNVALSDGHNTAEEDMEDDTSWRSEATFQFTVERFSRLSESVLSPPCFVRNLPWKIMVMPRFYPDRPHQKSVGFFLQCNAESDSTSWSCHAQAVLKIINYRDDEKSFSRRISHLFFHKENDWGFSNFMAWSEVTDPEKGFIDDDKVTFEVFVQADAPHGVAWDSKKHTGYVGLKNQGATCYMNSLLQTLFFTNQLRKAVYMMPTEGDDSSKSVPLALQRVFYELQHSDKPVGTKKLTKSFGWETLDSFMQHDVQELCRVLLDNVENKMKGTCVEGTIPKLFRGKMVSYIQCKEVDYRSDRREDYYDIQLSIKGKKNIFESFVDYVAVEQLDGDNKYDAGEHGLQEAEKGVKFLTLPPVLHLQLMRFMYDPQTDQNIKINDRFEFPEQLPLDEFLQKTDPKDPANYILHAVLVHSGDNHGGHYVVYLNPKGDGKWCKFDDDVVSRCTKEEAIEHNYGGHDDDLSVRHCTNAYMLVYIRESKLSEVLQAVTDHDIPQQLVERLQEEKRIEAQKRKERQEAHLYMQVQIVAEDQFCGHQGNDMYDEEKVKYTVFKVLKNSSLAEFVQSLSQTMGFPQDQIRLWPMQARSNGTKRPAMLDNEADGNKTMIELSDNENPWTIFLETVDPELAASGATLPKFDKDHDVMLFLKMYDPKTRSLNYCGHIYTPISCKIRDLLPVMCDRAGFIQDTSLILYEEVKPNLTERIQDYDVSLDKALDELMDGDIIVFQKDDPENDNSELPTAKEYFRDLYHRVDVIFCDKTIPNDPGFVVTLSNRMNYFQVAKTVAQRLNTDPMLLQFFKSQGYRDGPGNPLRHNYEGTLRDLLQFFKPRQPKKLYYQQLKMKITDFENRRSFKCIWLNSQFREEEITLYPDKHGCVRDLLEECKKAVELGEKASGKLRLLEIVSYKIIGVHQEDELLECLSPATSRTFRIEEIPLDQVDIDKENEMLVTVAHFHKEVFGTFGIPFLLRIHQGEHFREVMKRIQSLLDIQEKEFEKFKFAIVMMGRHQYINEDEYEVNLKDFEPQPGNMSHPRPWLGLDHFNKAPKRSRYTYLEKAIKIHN
As for B1, the binding result is “binds”.
To B2 belongs “binds”.
Take B3: the binding result is on record as “binds”.
In the case of B4, the binding result is “binds”.
